Source: paper PMC13598225, “Alternative splicing of synaptotagmin 7 regulates oligomerization and short-term synaptic plasticity” (Proceedings of the National Academy of Sciences of the …, 2026)

Molecular target: T1, α-syt7cyto immobilised for HaloTag pull-down (UniProt Q9R0N7-1 38-403)
T1 construct: synaptotagmin 7, α splice variant, cytoplasmic domain; The sentence on syt1-fl says only 'immobilized syt7'; also called immobilized syt7
Test: pull-down; HaloTag pull-down; syt7 immobilised; syt1-fl reconstituted into liposomes; Ca2+ against EGTA
Details: both partners purified

T1 sequence (Q9R0N7 38-403): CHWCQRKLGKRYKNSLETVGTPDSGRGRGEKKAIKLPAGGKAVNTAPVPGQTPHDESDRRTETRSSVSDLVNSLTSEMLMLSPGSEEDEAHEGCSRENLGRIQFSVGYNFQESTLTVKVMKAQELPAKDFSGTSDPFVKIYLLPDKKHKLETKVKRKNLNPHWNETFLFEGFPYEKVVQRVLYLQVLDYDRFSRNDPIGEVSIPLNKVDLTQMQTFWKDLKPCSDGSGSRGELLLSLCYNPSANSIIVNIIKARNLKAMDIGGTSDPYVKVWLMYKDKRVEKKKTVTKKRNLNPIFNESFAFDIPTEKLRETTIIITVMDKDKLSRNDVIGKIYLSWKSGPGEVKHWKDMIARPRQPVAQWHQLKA

B1: syt1-fl reconstituted into liposomes (full-length synaptotagmin 1) (natural protein, UniProt P21707 1-421, looked up)
chain: MVSASHPEALAAPVTTVATLVPHNATEPASPGEGKEDAFSKLKQKFMNELHKIPLPPWALIAIAIVAVLLVVTCCFCVCKKCLFKKKNKKKGKEKGGKNAINMKDVKDLGKTMKDQALKDDDAETGLTDGEEKEEPKEEEKLGKLQYSLDYDFQNNQLLVGIIQAAELPALDMGGTSDPYVKVFLLPDKKKKFETKVHRKTLNPVFNEQFTFKVPYSELGGKTLVMAVYDFDRFSKHDIIGEFKVPMNTVDFGHVTEEWRDLQSAEKEEQEKLGDICFSLRYVPTAGKLTVVILEAKNLKKMDVGGLSDPYVKIHLMQNGKRLKKKKTTIKKNTLNPYYNESFSFEVPFEQIQKVQVVVTVLDYDKIGKNDAIGKVFVGYNSTGAELRHWSDMLANPRRPIAQWHTLQVEEEVDAMLAVKK
notes: synaptotagmin 1, full length (fl); Construct and host are in SI Appendix; source: reconstituted into liposomes
binding in Ca2+ relative to EGTA (ratio): 1.46 ± 0.15
